# Experimental data as given in IntAct's records for PubMed 31515488.
# B1: Syntenin-2 (Homo sapiens), Q9H190 (parent)
# chain: MSSLYPSLEDLKVDQAIQAQVRASPKMPALPVQATAISPPPVLYPNLAELENYMGLSLSSQEVQESLLQIPEGDSTAVSGPGPGQMVAPVTGYSLGVRRAEIKPGVREIHLCKDERGKTGLRLRKVDQGLFVQLVQANTPASLVGLRFGDQLLQIDGRDCAGWSSHKAHQVVKKASGDKIVVVVRDRPFQRTVTMHKDSMGHVGFVIKKGKIVSLVKGSSAARNGLLTNHYVCEVDGQNVIGLKDKKIMEILATAGNVVTLTIIPSVIYEHMVKKLPPVLLHHTMDHSIPDA
# partner: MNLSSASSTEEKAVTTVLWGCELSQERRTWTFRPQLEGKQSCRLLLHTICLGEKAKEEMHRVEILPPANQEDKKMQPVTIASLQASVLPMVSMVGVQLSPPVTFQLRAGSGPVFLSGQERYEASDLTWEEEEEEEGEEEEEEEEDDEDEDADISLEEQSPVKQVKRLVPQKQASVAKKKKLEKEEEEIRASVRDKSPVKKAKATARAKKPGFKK
# B2: Testis-specific protein 10-interacting protein (Homo sapiens), Q3SY00 (parent)
# chain: MGQDTDMLNTYQQLVRTPSVRPGQDVRLQAPGTRTGLLKLLSTVSQDKQGCLGSGDGVPNQDLQQRSQSSRQTAKKDRKPRGQSKKGQGSEESEDHFPLLPRKPSFPFQWAWESIATDVRAVLQPSSPTPGHQALPMPSSFSQRQSRRKSTANLPEAHGCCWKTEAQNLKARQQLGAWGGVSIPTGKGELGSEPPSGLQLPGRRPGSGSASDKQVQLQSLGAEEAERGLSSGVLPQRPRRGSISEEEQFSEATEEAEEGEHRTPCRRRAGCQRKGQISGEEASDEGEVQGQSQGSSPSFNNLRRRQWRKTRAKELQGPWDLEKLHRQLQRDLDCGPQKLPWKTLRAAFQASKRNGKAYASGYDETFVSANLPNRTFHKRQEATRSLLQAWERQRQEERQQAELRRARTQHVQRQVAHCLAAYAPRGSRGPGAAQRKLEELRRQERQRFAEYQAELQGIQHRVQARPFLFQQAMQANARLTVTRRFSQVLSALGLDEEQLLSEAGKVDREGTPRKPRSHRSMGVRMEHSPQRPPRTEPTGSQPDRHYNPSLDPECSP
# B3: Docking protein 3 (Homo sapiens), Q7L591 (parent)
# chain: MTRGARLRSDARAQLNQLSLDGGTGSGQKGKCEEFPSSLSSVSPGLEAAALLLAVTMDPLETPIKDGILYQQHVKFGKKCWRKVWALLYAGGPSGVARLESWEVRDGGLGAAGDRSAGPGRRGERRVIRLADCVSVLPADGESCPRDTGAFLLTTTERSHLLAAQHRQAWMGPICQLAFPGTGEASSGSTDAQSPKRGLVPMEENSIYSSWQEVGEFPVVVQRTEAATRCQLKGPALLVLGPDAIQLREAKGTQALYSWPYHFLRKFGSDKGVFSFEAGRRCHSGEGLFAFSTPCAPDLCRAVAGAIARQRERLPELTRPQPCPLPRATSLPSLDTPGELREMPPGPEPPTSRKMHLAEPGPQSLPLLLGPEPNDLASGLYASVCKRASGPPGNEHLYENLCVLEASPTLHGGEPEPHEGPGSRSPTTSPIYHNGQDLSWPGPANDSTLEAQYRRLLELDQVEGTGRPDPQAGFKAKLVTLLSRERRKGPAPCDRP
# B4: Calcium-binding and coiled-coil domain-containing protein 2 (Homo sapiens), Q13137 (parent)
# chain: MEETIKDPPTSAVLLDHCHFSQVIFNSVEKFYIPGGDVTCHYTFTQHFIPRRKDWIGIFRVGWKTTREYYTFMWVTLPIDLNNKSAKQQEVQFKAYYLPKDDEYYQFCYVDEDGVVRGASIPFQFRPENEEDILVVTTQGEVEEIEQHNKELCKENQELKDSCISLQKQNSDMQAELQKKQEELETLQSINKKLELKVKEQKDYWETELLQLKEQNQKMSSENEKMGIRVDQLQAQLSTQEKEMEKLVQGDQDKTEQLEQLKKENDHLFLSLTEQRKDQKKLEQTVEQMKQNETTAMKKQQELMDENFDLSKRLSENEIICNALQRQKERLEGENDLLKRENSRLLSYMGLDFNSLPYQVPTSDEGGARQNPGLAYGNPYSGIQESSSPSPLSIKKCPICKADDICDHTLEQQQMQPLCFNCPICDKIFPATEKQIFEDHVFCHSL
# partner: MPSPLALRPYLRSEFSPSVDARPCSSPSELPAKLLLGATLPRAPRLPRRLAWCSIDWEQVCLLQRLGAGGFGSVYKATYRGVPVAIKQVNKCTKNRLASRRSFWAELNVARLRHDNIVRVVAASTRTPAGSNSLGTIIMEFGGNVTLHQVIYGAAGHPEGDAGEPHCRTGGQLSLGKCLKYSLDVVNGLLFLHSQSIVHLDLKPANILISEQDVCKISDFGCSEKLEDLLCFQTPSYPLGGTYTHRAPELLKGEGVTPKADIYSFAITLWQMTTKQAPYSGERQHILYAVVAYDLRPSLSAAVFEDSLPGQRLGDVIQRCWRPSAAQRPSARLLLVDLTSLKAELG
# B5: Atos homolog protein B (Homo sapiens), Q7L5A3 (parent)
# chain: MRHVQAEPSPSSEPEAGPSQPPVRQGALQGGLLMGYSPAGGATSPGVYQVSIFSPPAGTSEPHRALKRQAPSTEGPRELKRGPGLGAREGLPPEEPSTVGLLGPEGPGLGLGVASQHFSHRGLCVVEQRSSVTSSWTSGAWSPPCPPSNASCNTLHTRDWASPDPGGQGSLGESPGPAPPGQLHTLDTDLHSLAQIGGKSPVAGVGNGGSLWPRESPGTANGHSPEHTPPGPGPPGPCPTKRRLLPAGEAPDVSSEEEGPAPRRRRGSLGHPTAANSSDAKATPFWSHLLPGPKEPVLDPTDCGPMGRRLKGARRLKLSPLRSLRKGPGLLSPPSASPVPTPAVSRTLLGNFEESLLRGRFAPSGHIEGFTAEIGASGSYCPQHVTLPVTVTFFDVSEQNAPAPFLGIVDLNPLGRKGYSVPKVGTVQVTLFNPNQTVVKMFLVTFDFSDMPAAHMTFLRHRLFLVPVGEEGNANPTHRLLCYLLHLRFRSSRSGRLSLHGDIRLLFSRRSLELDTGLPYELQAVTEAPHNPRYSPLP
# B6: Lymphotoxin-alpha (Homo sapiens), P01374 (parent)
# chain: MTPPERLFLPRVCGTTLHLLLLGLLLVLLPGAQGLPGVGLTPSAAQTARQHPKMHLAHSTLKPAAHLIGDPSKQNSLLWRANTDRAFLQDGFSLSNNSLLVPTSGIYFVYSQVVFSGKAYSPKATSSPLYLAHEVQLFSSQYPFHVPLLSSQKMVYPGLQEPWLHSMYHGAAFQLTQGDQLSTHTDGIPHLVLSPSTVFFGAFAL
# partner: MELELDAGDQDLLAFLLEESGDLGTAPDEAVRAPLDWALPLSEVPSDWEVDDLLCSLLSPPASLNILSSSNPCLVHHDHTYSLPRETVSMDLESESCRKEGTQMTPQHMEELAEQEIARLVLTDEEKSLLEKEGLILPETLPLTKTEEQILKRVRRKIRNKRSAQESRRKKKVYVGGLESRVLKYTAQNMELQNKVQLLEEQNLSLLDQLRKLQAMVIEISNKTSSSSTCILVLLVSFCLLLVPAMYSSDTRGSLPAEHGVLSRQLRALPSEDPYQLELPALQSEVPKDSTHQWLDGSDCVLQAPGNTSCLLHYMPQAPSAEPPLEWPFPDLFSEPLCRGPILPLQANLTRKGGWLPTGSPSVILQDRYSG
# B7: Nucleoporin p54 (Homo sapiens), Q7Z3B4 (parent)
# chain: MAFNFGAPSGTSGTAAATAAPAGGFGGFGTTSTTAGSAFSFSAPTNTGTTGLFGGTQNKGFGFGTGFGTTTGTSTGLGTGLGTGLGFGGFNTQQQQQTTLGGLFSQPTQAPTQSNQLINTASALSAPTLLGDERDAILAKWNQLQAFWGTGKGYFNNNIPPVEFTQENPFCRFKAVGYSCMPSNKDEDGLVVLVFNKKETEIRSQQQQLVESLHKVLGGNQTLTVNVEGTKTLPDDQTEVVIYVVERSPNGTSRRVPATTLYAHFEQANIKTQLQQLGVTLSMTRTELSPAQIKQLLQNPPAGVDPIIWEQAKVDNPDSEKLIPVPMVGFKELLRRLKVQDQMTKQHQTRLDIISEDISELQKNQTTSVAKIAQYKRKLMDLSHRTLQVLIKQEIQRKSGYAIQADEEQLRVQLDTIQGELNAPTQFKGRLNELMSQIRMQNHFGAVRSEERYYIDADLLREIKQHLKQQQEGLSHLISIIKDDLEDIKLVEHGLNETIHIRGGVFS
# Variants of: B1
# Settings: with npm2_human NPM2, Q86SE8
row,Variant,effect of a mutation on the interaction
1,G225R,disrupting interaction strength

# Variants of: B2
# Settings: with mtus2_human MTUS2, Q5JR59
# mtus2_human MTUS2, Q5JR59, sequence (Q5JR59 whole entry): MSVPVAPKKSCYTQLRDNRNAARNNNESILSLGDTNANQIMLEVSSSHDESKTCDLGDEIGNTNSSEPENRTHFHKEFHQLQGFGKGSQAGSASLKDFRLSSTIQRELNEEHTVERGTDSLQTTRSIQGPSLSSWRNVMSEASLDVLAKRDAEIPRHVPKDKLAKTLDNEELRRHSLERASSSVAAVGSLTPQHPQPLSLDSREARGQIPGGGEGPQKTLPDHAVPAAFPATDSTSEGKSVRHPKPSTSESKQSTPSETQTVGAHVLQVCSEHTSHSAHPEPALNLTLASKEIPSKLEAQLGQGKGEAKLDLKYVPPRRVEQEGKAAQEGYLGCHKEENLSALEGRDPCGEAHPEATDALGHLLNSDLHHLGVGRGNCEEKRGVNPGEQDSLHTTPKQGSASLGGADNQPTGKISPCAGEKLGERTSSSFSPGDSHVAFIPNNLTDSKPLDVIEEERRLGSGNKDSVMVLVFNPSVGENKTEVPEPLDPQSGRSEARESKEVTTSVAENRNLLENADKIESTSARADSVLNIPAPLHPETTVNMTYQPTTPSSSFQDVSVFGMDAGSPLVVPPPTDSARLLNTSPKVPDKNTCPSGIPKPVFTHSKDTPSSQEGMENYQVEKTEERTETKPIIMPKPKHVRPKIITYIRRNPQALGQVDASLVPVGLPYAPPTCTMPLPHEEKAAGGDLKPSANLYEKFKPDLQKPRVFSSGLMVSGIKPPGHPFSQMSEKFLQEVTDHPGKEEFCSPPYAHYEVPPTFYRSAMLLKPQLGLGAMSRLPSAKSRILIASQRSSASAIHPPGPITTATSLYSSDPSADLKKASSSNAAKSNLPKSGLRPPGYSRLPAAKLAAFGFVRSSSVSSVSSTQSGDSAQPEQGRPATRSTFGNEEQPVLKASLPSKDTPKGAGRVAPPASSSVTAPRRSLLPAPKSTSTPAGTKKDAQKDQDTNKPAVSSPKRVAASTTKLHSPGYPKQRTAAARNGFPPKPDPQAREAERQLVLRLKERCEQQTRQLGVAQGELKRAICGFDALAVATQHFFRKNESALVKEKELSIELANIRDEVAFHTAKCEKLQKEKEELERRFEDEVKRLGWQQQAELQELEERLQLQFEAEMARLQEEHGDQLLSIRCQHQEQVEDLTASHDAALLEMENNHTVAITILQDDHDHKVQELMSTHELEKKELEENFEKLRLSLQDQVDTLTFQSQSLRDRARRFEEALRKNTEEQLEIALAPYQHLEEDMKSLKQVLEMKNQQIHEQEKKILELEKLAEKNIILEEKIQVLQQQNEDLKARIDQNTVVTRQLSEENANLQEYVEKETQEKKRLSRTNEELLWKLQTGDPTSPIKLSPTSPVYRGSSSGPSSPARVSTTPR
row,Variant,effect of a mutation on the interaction
1,R305P,with no effect
2,D25E,with no effect
3,V215A,with no effect
4,S292N,with no effect
5,R303Q,with no effect
6,H96L,with no effect
7,S242L,with no effect
8,R237S,with no effect

# Variants of: B2
# Settings: with cep70_human CEP70, Q8NHQ1
# Target sequence in this assay (Q8NHQ1 whole entry): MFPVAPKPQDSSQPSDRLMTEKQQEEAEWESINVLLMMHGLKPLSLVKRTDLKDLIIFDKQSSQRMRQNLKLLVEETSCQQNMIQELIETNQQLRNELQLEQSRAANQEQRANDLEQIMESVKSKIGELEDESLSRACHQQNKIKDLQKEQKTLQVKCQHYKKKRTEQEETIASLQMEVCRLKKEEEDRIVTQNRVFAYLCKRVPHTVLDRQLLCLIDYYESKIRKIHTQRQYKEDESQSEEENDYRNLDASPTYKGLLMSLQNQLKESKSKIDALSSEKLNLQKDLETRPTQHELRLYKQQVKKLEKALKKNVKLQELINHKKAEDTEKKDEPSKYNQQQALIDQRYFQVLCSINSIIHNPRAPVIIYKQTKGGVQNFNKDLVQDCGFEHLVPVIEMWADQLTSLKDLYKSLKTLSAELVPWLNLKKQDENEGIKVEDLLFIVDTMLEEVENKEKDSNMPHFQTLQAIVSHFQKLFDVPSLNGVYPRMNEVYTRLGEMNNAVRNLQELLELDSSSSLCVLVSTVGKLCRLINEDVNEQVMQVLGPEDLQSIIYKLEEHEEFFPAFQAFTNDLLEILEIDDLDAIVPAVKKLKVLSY
row,Variant,effect of a mutation on the interaction
1,A210V,with no effect
2,S242L,with no effect

# Variants of: B3
# Settings: with traf1_human TRAF1, Q13077
# traf1_human TRAF1, Q13077, sequence (Q13077 whole entry): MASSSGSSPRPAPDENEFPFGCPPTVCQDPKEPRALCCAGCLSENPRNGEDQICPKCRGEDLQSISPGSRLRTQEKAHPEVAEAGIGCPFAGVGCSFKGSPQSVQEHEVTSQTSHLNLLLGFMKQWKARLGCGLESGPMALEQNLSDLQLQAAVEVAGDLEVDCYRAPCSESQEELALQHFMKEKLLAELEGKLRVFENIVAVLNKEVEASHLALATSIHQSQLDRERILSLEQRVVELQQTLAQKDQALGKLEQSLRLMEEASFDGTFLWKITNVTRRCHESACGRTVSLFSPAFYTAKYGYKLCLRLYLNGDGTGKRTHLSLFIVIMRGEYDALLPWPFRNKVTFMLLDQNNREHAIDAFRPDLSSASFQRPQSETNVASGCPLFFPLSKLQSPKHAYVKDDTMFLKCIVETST
row,Variant,effect of a mutation on the interaction
1,R229H,with no effect

# Variants of: B4
# Settings: with mos_human MOS
row,Variant,effect of a mutation on the interaction
1,E222K,with no effect

# Variants of: B5
# Settings: with dnja3_human DNAJA3, Q96EY1
# dnja3_human DNAJA3, Q96EY1, sequence (Q96EY1 whole entry): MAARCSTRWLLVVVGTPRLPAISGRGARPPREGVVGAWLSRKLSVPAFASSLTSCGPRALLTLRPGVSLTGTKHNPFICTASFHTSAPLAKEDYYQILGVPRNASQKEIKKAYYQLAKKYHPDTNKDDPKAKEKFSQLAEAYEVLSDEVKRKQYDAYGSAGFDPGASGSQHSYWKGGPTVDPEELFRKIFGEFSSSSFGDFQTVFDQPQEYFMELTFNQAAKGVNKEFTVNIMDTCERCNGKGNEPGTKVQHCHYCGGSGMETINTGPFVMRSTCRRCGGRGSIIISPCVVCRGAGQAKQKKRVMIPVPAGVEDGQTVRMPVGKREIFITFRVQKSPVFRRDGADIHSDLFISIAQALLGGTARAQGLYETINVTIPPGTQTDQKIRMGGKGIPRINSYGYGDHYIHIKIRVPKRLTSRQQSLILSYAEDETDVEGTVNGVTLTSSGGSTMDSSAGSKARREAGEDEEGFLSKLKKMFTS
row,Variant,effect of a mutation on the interaction
1,A178T,with no effect

# Variants of: B5
# Settings: with cep70_human CEP70, Q8NHQ1
# Target sequence in this assay (Q8NHQ1 whole entry): as the sequence (Q8NHQ1 whole entry) above
row,Variant,effect of a mutation on the interaction
1,A178T,with no effect

# Variants of: B5
# Settings: with ikzf1_human IKZF1, Q13422
# ikzf1_human IKZF1, Q13422, sequence (Q13422 whole entry): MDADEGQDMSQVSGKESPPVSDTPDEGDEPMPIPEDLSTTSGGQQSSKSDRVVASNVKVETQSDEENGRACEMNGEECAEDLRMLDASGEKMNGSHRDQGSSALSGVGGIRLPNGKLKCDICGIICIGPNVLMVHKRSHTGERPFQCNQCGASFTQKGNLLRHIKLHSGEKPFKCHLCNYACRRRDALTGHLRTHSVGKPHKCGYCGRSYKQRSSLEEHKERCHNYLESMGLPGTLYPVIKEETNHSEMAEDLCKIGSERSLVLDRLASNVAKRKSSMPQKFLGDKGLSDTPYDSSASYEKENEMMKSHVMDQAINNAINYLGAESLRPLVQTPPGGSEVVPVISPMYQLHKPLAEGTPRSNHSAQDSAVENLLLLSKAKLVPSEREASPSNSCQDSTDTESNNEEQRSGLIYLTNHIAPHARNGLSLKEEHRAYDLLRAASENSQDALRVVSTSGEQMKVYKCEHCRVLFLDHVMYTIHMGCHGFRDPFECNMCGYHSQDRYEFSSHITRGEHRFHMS
row,Variant,effect of a mutation on the interaction
1,A178T,with no effect

# Variants of: B6
# Settings: with creb3_human CREB3, O43889
row,Variant,effect of a mutation on the interaction
1,T60N,with no effect

# Variants of: B7
# Settings: with nup62_human NUP62, P37198
# nup62_human NUP62, P37198, sequence (P37198 whole entry): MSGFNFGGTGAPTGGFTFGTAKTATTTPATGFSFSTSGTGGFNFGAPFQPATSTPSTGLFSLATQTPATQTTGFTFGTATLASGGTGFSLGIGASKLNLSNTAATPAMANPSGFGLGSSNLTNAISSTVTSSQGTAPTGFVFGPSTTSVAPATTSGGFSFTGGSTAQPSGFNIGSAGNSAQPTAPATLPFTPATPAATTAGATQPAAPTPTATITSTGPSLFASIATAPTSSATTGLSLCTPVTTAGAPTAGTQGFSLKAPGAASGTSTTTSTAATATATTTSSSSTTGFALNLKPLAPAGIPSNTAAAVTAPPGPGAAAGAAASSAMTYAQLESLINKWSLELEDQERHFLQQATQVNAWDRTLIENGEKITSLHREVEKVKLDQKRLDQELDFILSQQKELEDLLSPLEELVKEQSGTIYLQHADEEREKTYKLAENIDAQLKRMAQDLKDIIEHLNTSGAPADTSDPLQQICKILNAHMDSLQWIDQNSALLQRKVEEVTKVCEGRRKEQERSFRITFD
row,Variant,effect of a mutation on the interaction
1,N250S,with no effect

# Variants of: B7
# Settings: with nup58_human NUP58, Q9BVL2
# nup58_human NUP58, Q9BVL2, sequence (Q9BVL2 whole entry): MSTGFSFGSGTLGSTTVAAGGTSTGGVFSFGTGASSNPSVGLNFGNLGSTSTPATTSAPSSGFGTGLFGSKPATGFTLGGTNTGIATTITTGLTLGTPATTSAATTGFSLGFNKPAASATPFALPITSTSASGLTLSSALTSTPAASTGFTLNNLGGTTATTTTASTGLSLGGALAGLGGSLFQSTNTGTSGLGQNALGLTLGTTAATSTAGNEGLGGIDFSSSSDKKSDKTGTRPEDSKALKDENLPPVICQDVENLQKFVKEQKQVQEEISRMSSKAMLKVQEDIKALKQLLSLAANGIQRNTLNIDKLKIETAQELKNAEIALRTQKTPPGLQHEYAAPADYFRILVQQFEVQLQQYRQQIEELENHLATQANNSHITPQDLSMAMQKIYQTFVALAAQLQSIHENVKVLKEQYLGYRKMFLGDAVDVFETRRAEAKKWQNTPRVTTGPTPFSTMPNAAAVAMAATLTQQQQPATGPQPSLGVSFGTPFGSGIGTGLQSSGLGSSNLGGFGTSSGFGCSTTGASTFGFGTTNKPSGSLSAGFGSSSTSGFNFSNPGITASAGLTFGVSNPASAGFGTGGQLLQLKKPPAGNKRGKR
row,Variant,effect of a mutation on the interaction
1,N250S,with no effect

# Variants of: B7
# Settings: with hgs_human HGS
row,Variant,effect of a mutation on the interaction
1,N250S,with no effect

# Variants of: B7
# Settings: with KRT15, P19012
# KRT15, P19012, sequence (P19012 whole entry): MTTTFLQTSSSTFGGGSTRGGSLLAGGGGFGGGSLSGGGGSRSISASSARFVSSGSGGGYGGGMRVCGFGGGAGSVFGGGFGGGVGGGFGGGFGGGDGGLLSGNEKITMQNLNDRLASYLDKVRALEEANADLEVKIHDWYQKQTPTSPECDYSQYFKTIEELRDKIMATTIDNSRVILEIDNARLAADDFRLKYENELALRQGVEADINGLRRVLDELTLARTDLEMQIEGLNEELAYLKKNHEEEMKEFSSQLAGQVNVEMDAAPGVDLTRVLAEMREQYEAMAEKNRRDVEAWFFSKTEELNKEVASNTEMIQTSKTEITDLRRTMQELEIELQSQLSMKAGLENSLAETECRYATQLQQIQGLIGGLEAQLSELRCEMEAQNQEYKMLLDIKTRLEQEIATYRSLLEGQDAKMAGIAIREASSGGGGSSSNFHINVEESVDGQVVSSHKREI
row,Variant,effect of a mutation on the interaction
1,N250S,with no effect

# Variants of: B7
# Settings: with nup58_human NUP58, Q9BVL2
# Remark: another data set of the same source
row,Variant,effect of a mutation on the interaction
1,T416A,with no effect

# Variants of: B7
# Settings: with hgs_human HGS
# Remark: another data set of the same source
row,Variant,effect of a mutation on the interaction
1,T416A,with no effect

# Variants of: B7
# Settings: with nup62_human NUP62, P37198
# Remark: another data set of the same source
row,Variant,effect of a mutation on the interaction
1,T416A,with no effect

# Variants of: B7
# Settings: with KRT15, P19012
# Remark: another data set of the same source
row,Variant,effect of a mutation on the interaction
1,T416A,with no effect
